# Assay results published in US20110118131A1 (published 2011).
# T1: Ep-CAM (UniProt P16422 24-265, limits assumed)
# T1 construct: Immobilised on the Biacore chip; construct not described
# T1 sequence (looked up): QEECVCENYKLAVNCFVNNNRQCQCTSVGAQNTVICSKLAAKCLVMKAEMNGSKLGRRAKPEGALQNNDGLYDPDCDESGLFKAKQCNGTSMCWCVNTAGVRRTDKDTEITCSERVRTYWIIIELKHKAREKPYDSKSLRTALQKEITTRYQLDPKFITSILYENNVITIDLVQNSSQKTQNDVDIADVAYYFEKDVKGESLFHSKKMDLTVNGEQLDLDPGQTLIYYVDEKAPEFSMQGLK
# Target: T1, Ep-CAM
# Experiment: Biacore, Fab periplasmic extract
binding result,fold difference in affinity vs original ING-1 [fold],Binder
no binding,,"ING-1 Fab, light chain K27T (Fab, V domains shown, Fab in periplasmic extract) VH: QIQLVQSGPELKKPGETVKISCKASGYTFTKYGMNWVKQAPGKGLKWMGWINTYTEEPTYGDDFKGRFAFSLETSASTANLQINNLKSEDTATYFCARFGSAVDYWGQGTSVTVSS VL: DIVMTQAAFSNPVTLGTSGSISCRSSTSLLHSNGITYLYWYLQKPGQSPQLLIYQMSNLASGVPDRFSSSGSGTDFTLRISRVEAEDVGVYYCAQNLELPRTFGGGTKLEMKR"
,0.09,"ING-1 Fab, light chain L99T (Fab, V domains shown, Fab in periplasmic extract) VH: QIQLVQSGPELKKPGETVKISCKASGYTFTKYGMNWVKQAPGKGLKWMGWINTYTEEPTYGDDFKGRFAFSLETSASTANLQINNLKSEDTATYFCARFGSAVDYWGQGTSVTVSS VL: DIVMTQAAFSNPVTLGTSGSISCRSSKSLLHSNGITYLYWYLQKPGQSPQLLIYQMSNLASGVPDRFSSSGSGTDFTLRISRVEAEDVGVYYCAQNLETPRTFGGGTKLEMKR"
no binding,,"ING-1 Fab, light chain L29I (Fab, V domains shown, Fab in periplasmic extract) VH: QIQLVQSGPELKKPGETVKISCKASGYTFTKYGMNWVKQAPGKGLKWMGWINTYTEEPTYGDDFKGRFAFSLETSASTANLQINNLKSEDTATYFCARFGSAVDYWGQGTSVTVSS VL: DIVMTQAAFSNPVTLGTSGSISCRSSKSILHSNGITYLYWYLQKPGQSPQLLIYQMSNLASGVPDRFSSSGSGTDFTLRISRVEAEDVGVYYCAQNLELPRTFGGGTKLEMKR"
no binding,,"ING-1 Fab, light chain M56V (Fab, V domains shown, Fab in periplasmic extract) VH: QIQLVQSGPELKKPGETVKISCKASGYTFTKYGMNWVKQAPGKGLKWMGWINTYTEEPTYGDDFKGRFAFSLETSASTANLQINNLKSEDTATYFCARFGSAVDYWGQGTSVTVSS VL: DIVMTQAAFSNPVTLGTSGSISCRSSKSLLHSNGITYLYWYLQKPGQSPQLLIYQVSNLASGVPDRFSSSGSGTDFTLRISRVEAEDVGVYYCAQNLELPRTFGGGTKLEMKR"
,0.5,"ING-1 Fab, light chain L97A (Fab, V domains shown, Fab in periplasmic extract) VH: QIQLVQSGPELKKPGETVKISCKASGYTFTKYGMNWVKQAPGKGLKWMGWINTYTEEPTYGDDFKGRFAFSLETSASTANLQINNLKSEDTATYFCARFGSAVDYWGQGTSVTVSS VL: DIVMTQAAFSNPVTLGTSGSISCRSSKSLLHSNGITYLYWYLQKPGQSPQLLIYQMSNLASGVPDRFSSSGSGTDFTLRISRVEAEDVGVYYCAQNAELPRTFGGGTKLEMKR"
,0.02,"ING-1 Fab, light chain L99G (Fab, V domains shown, Fab in periplasmic extract) VH: QIQLVQSGPELKKPGETVKISCKASGYTFTKYGMNWVKQAPGKGLKWMGWINTYTEEPTYGDDFKGRFAFSLETSASTANLQINNLKSEDTATYFCARFGSAVDYWGQGTSVTVSS VL: DIVMTQAAFSNPVTLGTSGSISCRSSKSLLHSNGITYLYWYLQKPGQSPQLLIYQMSNLASGVPDRFSSSGSGTDFTLRISRVEAEDVGVYYCAQNLEGPRTFGGGTKLEMKR"
no binding,,"ING-1 Fab, light chain L29P (Fab, V domains shown, Fab in periplasmic extract) VH: QIQLVQSGPELKKPGETVKISCKASGYTFTKYGMNWVKQAPGKGLKWMGWINTYTEEPTYGDDFKGRFAFSLETSASTANLQINNLKSEDTATYFCARFGSAVDYWGQGTSVTVSS VL: DIVMTQAAFSNPVTLGTSGSISCRSSKSPLHSNGITYLYWYLQKPGQSPQLLIYQMSNLASGVPDRFSSSGSGTDFTLRISRVEAEDVGVYYCAQNLELPRTFGGGTKLEMKR"
,0.8,"ING-1 Fab, light chain M56G (Fab, V domains shown, Fab in periplasmic extract) VH: QIQLVQSGPELKKPGETVKISCKASGYTFTKYGMNWVKQAPGKGLKWMGWINTYTEEPTYGDDFKGRFAFSLETSASTANLQINNLKSEDTATYFCARFGSAVDYWGQGTSVTVSS VL: DIVMTQAAFSNPVTLGTSGSISCRSSKSLLHSNGITYLYWYLQKPGQSPQLLIYQGSNLASGVPDRFSSSGSGTDFTLRISRVEAEDVGVYYCAQNLELPRTFGGGTKLEMKR"
,0.05,"ING-1 Fab, light chain P100A (Fab, V domains shown, Fab in periplasmic extract) VH: QIQLVQSGPELKKPGETVKISCKASGYTFTKYGMNWVKQAPGKGLKWMGWINTYTEEPTYGDDFKGRFAFSLETSASTANLQINNLKSEDTATYFCARFGSAVDYWGQGTSVTVSS VL: DIVMTQAAFSNPVTLGTSGSISCRSSKSLLHSNGITYLYWYLQKPGQSPQLLIYQMSNLASGVPDRFSSSGSGTDFTLRISRVEAEDVGVYYCAQNLELARTFGGGTKLEMKR"
,0.03,"ING-1 Fab, light chain P100L (Fab, V domains shown, Fab in periplasmic extract) VH: QIQLVQSGPELKKPGETVKISCKASGYTFTKYGMNWVKQAPGKGLKWMGWINTYTEEPTYGDDFKGRFAFSLETSASTANLQINNLKSEDTATYFCARFGSAVDYWGQGTSVTVSS VL: DIVMTQAAFSNPVTLGTSGSISCRSSKSLLHSNGITYLYWYLQKPGQSPQLLIYQMSNLASGVPDRFSSSGSGTDFTLRISRVEAEDVGVYYCAQNLELLRTFGGGTKLEMKR"
,0.6,"ING-1 Fab, light chain N33T (Fab, V domains shown, Fab in periplasmic extract) VH: QIQLVQSGPELKKPGETVKISCKASGYTFTKYGMNWVKQAPGKGLKWMGWINTYTEEPTYGDDFKGRFAFSLETSASTANLQINNLKSEDTATYFCARFGSAVDYWGQGTSVTVSS VL: DIVMTQAAFSNPVTLGTSGSISCRSSKSLLHSTGITYLYWYLQKPGQSPQLLIYQMSNLASGVPDRFSSSGSGTDFTLRISRVEAEDVGVYYCAQNLELPRTFGGGTKLEMKR"
,0.8,"ING-1 Fab, light chain M56T (Fab, V domains shown, Fab in periplasmic extract) VH: QIQLVQSGPELKKPGETVKISCKASGYTFTKYGMNWVKQAPGKGLKWMGWINTYTEEPTYGDDFKGRFAFSLETSASTANLQINNLKSEDTATYFCARFGSAVDYWGQGTSVTVSS VL: DIVMTQAAFSNPVTLGTSGSISCRSSKSLLHSNGITYLYWYLQKPGQSPQLLIYQTSNLASGVPDRFSSSGSGTDFTLRISRVEAEDVGVYYCAQNLELPRTFGGGTKLEMKR"
no binding,,"ING-1 Fab, light chain L97G (Fab, V domains shown, Fab in periplasmic extract) VH: QIQLVQSGPELKKPGETVKISCKASGYTFTKYGMNWVKQAPGKGLKWMGWINTYTEEPTYGDDFKGRFAFSLETSASTANLQINNLKSEDTATYFCARFGSAVDYWGQGTSVTVSS VL: DIVMTQAAFSNPVTLGTSGSISCRSSKSLLHSNGITYLYWYLQKPGQSPQLLIYQMSNLASGVPDRFSSSGSGTDFTLRISRVEAEDVGVYYCAQNGELPRTFGGGTKLEMKR"
no binding,,"ING-1 Fab, light chain N33V (Fab, V domains shown, Fab in periplasmic extract) VH: QIQLVQSGPELKKPGETVKISCKASGYTFTKYGMNWVKQAPGKGLKWMGWINTYTEEPTYGDDFKGRFAFSLETSASTANLQINNLKSEDTATYFCARFGSAVDYWGQGTSVTVSS VL: DIVMTQAAFSNPVTLGTSGSISCRSSKSLLHSVGITYLYWYLQKPGQSPQLLIYQMSNLASGVPDRFSSSGSGTDFTLRISRVEAEDVGVYYCAQNLELPRTFGGGTKLEMKR"
,0.01,"ING-1 Fab, light chain L99P (Fab, V domains shown, Fab in periplasmic extract) VH: QIQLVQSGPELKKPGETVKISCKASGYTFTKYGMNWVKQAPGKGLKWMGWINTYTEEPTYGDDFKGRFAFSLETSASTANLQINNLKSEDTATYFCARFGSAVDYWGQGTSVTVSS VL: DIVMTQAAFSNPVTLGTSGSISCRSSKSLLHSNGITYLYWYLQKPGQSPQLLIYQMSNLASGVPDRFSSSGSGTDFTLRISRVEAEDVGVYYCAQNLEPPRTFGGGTKLEMKR"
